Data set [1] deals with T1, Retinol binding protein-4 (RBP-4) (UniProt P02753 19-201). The data set can be described thus: EIS (electrochemical impedance, Langmuir linearization); same measurement as the Kd row; 2 mM MgCl2; 0.1 M PBS + 2 mM MgCl2, Fe(CN)6 3-/4- redox probe, aptamer on gold electrode with MCH; aptamer folded at 70 C 1 min then ice 10 min; immobilization at room temp.
The target in data set [2] is T1, Retinol binding protein-4 (RBP-4). The data set can be described thus: EIS (electrochemical impedance, Langmuir linearization); folded aptamer, 0.1 uM in immobilization; 2 mM MgCl2; Fe(CN)6 3-/4- probe; 0.1 M PBS + 2 mM MgCl2, Fe(CN)6 3-/4- redox probe, aptamer on gold electrode with MCH; aptamer folded at 70 C 1 min then ice 10 min; immobilization at room temp.

A word on the Kd: it is a measure of binding affinity in units of concentration.

B1: Apt-RBP-4 (ssDNA)
DNA: ACAGTAGTGAGGGGTCCGTCGTGGGGTAGTTGGGTCGTGG
modifications: 5'-thiol (-SH)
In the case of B1, in data set [1], the Ka was found to be 2e+07 M⁻¹. For the same molecule, the Kd in data set [2] amounted to 50 nM.

The record behind these values is publication PMC10887324, “Electrochemical Aptasensing Platform for the Detection of Retinol Binding Protein-4”.
